# Results published in patent US20140179896A1 (published 2014).
# Numbering of substitutions follows the chain as printed.
# B1: 3′B2 PR4 (designed binder)
# chain: EVVAATPTSLLISWRHPHFPTRYYRITYGETGGNSPVQEFTVPLQPPTATISGLKPGVDYTITGYAVTVGRNDRELLTPISINYRT
# notes: Del 1-8
# B2: 3′C5 PR4 (designed binder)
# chain: B1 chain with V69D, G70A, R71M, N72Y, D73G, L77M
# notes: Del 1-8
# B3: 3′C3 PR4 (designed binder)
# chain: B1 chain with V69M, G70A, R71Q, D73G, R74H, E75A, L77F
# notes: Del 1-8
# B4: 3′D3 PR4 (designed binder)
# chain: B1 chain with V69P, R71P, N72G, L77I
# notes: Del 1-8
# B5: 3′E3 PR4 (designed binder)
# chain: B1 chain with V69M, G70A, R71Q, N72Y, D73G
# notes: Del 1-8
# B6: 4′C9 PR4 (designed binder)
# chain: B1 chain with V69L, R71P, R74H, L77M
# notes: Del 1-8
# B7: 4′G12 PR4 (designed binder)
# chain: B1 chain with G70A, R71W, R74H, L76I, L77Y
# notes: Del 1-8
# B8: 4′D6 PR4 (designed binder)
# chain: B1 chain with V69M, G70A, R71Q, R74H, L77M
# notes: Del 1-8
# B9: 3′F3 PR4 (designed binder)
# chain: B1 chain with V69L, R71H
# notes: Del 1-8
# B10: 3′C12 PR4 (designed binder)
# chain: B1 chain with V69I, R71P, D73N, R74H
# notes: Del 1-8
# B11: 3′H11 PR4 (designed binder)
# chain: B1 chain with V69L, G70A, R71H, D73G, R74N
# notes: Del 1-8
# B12: 3′C8 PR4 (designed binder)
# chain: B1 chain with V69E, R71L, R74H, L77M, T78I
# notes: Del 1-8
# B13: 3′D8 PR4 (designed binder)
# chain: B1 chain with V69A, R71P, R74H, E75Q, L77F
# notes: Del 1-8
# B14: 4′A5 PR4 (designed binder)
# chain: B1 chain with V69L, G70A, R71Q, R74H
# notes: Del 1-8
# B15: 4B11 PR3 (designed binder)
# chain: B1 chain with R71Q, D73N, R74H, L77I
# notes: Del 1-8
# B16: 3′D9 PR4 (designed binder)
# chain: B1 chain with V69G, G70Y, R71Y
# notes: Del 1-8
# B17: 3′F1 PR4 (designed binder)
# chain: B1 chain with G70A, R71Q, N72D, D73G, R74H, E75F, L77Y
# notes: Del 1-8
# B18: 3′H3 PR4 (designed binder)
# chain: B1 chain with V69L, R71L, L77M
# notes: Del 1-8
# B19: 3′C6 PR4 (designed binder)
# chain: B1 chain with V69M, R71P
# notes: Del 1-8
# B20: 3′B11 PR4 (designed binder)
# chain: B1 chain with V69E, G70T, R71W, R74H, L76I, L77R
# notes: Del 1-8
# B21: 4′E7 PR4 (designed binder)
# chain: B1 chain with V69W, G70A, R71Q, R74H
# notes: Del 1-8
# B22: 4F4 PR3 (designed binder)
# chain: B1 chain with V69L, G70A, R71Q, L77I
# notes: Del 1-8
# B23: 3′G3 PR4 (designed binder)
# chain: B1 chain with V69F, G70D, R71Q, N72S, R74H
# notes: Del 1-8
# B24: 3′D2 PR4 (designed binder)
# chain: B1 chain with G70E, R71S, D73G, R74H, E75A, L77F, T78V
# notes: Del 1-8
# B25: 3′B12 PR4 (designed binder)
# chain: B1 chain with G70A, R71H, N72E, D73N
# notes: Del 1-8
# B26: 3′H8 PR4 (designed binder)
# chain: B1 chain with R71H, L77I
# notes: Del 1-8
# B27: 3′G7 PR4 (designed binder)
# chain: B1 chain with V69E, R71Q, R74Q, E75L, L77F, T78I
# notes: Del 1-8
# B28: 3′H9 PR4 (designed binder)
# chain: B1 chain with V69H, R71P, N72Y, R74Q, E75V
# notes: Del 1-8
# B29: 4C9 PR3 (designed binder)
# chain: B1 chain with V69L, G70A, R71Q, R74H
# notes: Del 1-8
# B30: 4′D8 PR4 (designed binder)
# chain: B1 chain with V69L, G70A, R71Q, D73G, R74H, L77Y
# notes: Del 1-8
# B31: 3′E11 PR4 (designed binder)
# chain: B1 chain with R71P, N72H
# notes: Del 1-8
# B32: 4′B11 PR4 (designed binder)
# chain: B1 chain with V69M, G70A, R71H, R74H
# notes: Del 1-8
# B33: 4′B3 PR4 (designed binder)
# chain: B1 chain with V69M, G70A, R71Q, D73N
# notes: Del 1-8
# B34: 3′E9 PR4 (designed binder)
# chain: B1 chain with G70E, R71Q, N72D, D73G, R74H, E75V, L77Y, T78I
# notes: Del 1-8
# B35: 4′B8 PR4 (designed binder)
# chain: B1 chain with G70A, R71Q, R74H, E75K, L77F, T78I
# notes: Del 1-8
# B36: 4′B7 PR4 (designed binder)
# chain: B1 chain with G70A, R71Q, D73N, R74H
# notes: Del 1-8
# B37: 3′F12 PR4 (designed binder)
# chain: B1 chain with V69L, G70S, R71Q, N72T, R74H
# notes: Del 1-8
# B38: 4′H5 PR4 (designed binder)
# chain: B1 chain with V69L, G70A, R71Q, D73G, R74H, L77F
# notes: Del 1-8
# B39: 3′B4 PR4 (designed binder)
# chain: B1 chain with G70A, R71W, D73G, R74H, L77M
# notes: Del 1-8
# B40: 3′G10 PR4 (designed binder)
# chain: B1 chain with V69L, G70T, R71H, R74H
# notes: Del 1-8
# B41: 3′F2 PR4 (designed binder)
# chain: B1 chain with V69L, R71K, R74H
# notes: Del 1-8
# B42: 4′C5 PR4 (designed binder)
# chain: B1 chain with V69L, R71L, R74H, L77I
# notes: Del 1-8
# B43: 3′F6 PR4 (designed binder)
# chain: B1 chain with V69I, G70E, R71Q, N72S, D73G, R74L, E75Q, L77M
# notes: Del 1-8
# B44: 4H5 PR3 (designed binder)
# chain: B1 chain with G70A, R71Q, D73G, R74H, L77I
# notes: Del 1-8
# B45: 3′E1 PR4 (designed binder)
# chain: B1 chain with G70A, R71P, D73G, R74H, L77F
# notes: Del 1-8
# B46: 3′F9 PR4 (designed binder)
# chain: B1 chain with V69L, R71P, L77M
# notes: Del 1-8
# B47: 3′G2 PR4 (designed binder)
# chain: B1 chain with V69L, G70A, R71Q, D73G, R74H, L77I
# notes: Del 1-8
# B48: 3′E5 PR4 (designed binder)
# chain: B1 chain with G70A, R71W, N72D, D73G, L77F
# notes: Del 1-8
# B49: 4′G4 PR4 (designed binder)
# chain: B1 chain with G70A, R71Q
# notes: Del 1-8
# B50: 3′G1 PR4 (designed binder)
# chain: B1 chain with V69L, G70A, R71L, D73G, R74H, L77F
# notes: Del 1-8
# B51: 3′H10 PR4 (designed binder)
# chain: B1 chain with V69W, G70A, R71W, R74H, L77M
# notes: Del 1-8
# B52: 3′H1 PR4 (designed binder)
# chain: B1 chain with V69F, G70A, R71Q, R74H, E75Q, L77F
# notes: Del 1-8
# B53: 3′B8 PR4 (designed binder)
# chain: B1 chain with V69L, R71Y, N72H, R74H, E75A, L77F
# notes: Del 1-8
# B54: 3′B10 PR4 (designed binder)
# chain: B1 chain with V69L, G70A, R71Q, N72T, D73G
# notes: Del 1-8
# Target: T1, human vascular endothelial growth factor receptor-2 Fc chimera (KDR-Fc) (human, UniProt P35968 20-764)
# T1 construct: range 1-764; also called human VEGFR-2; VEGF-R2-Fc; not shown: human IgG1 Fc
# Experiment: radioactive equilibrium binding, 1 nM KDR-Fc
# Method: To prepare ³⁵S-labeled binding proteins for analysis, mRNA was prepared as described above for RNA-protein fusion production but the linker ligation step was omitted. The mRNA was expressed using rabbit reticulocyte lysate translation kit (Ambion) in the presence of ³⁵S-labeled Met at 30° C. for 1 hour. Expressed protein was purified on M2-agarose Flag beads (Sigma) as described above. This procedure produced the encoded protein without the nucleic acid tail. In a direct binding assay, VEGF-R2-Fc fusions in concentrations ranging from 0 to 200 nM were added to a constant concentration of the purified protein (0.2 or 0.5 nM) and incubated at 30° C. for 1 hour in buffer B. The receptor-binder complexes were captured using Protein A magnetic beads for another 10 minutes at room temperature using a Kingfisher™ The beads were washed with six reaction volumes of buffer B. The protein was eluted from the beads with 100 μL of 0.1 M KOH. […] of the reaction mixture and elution were dried onto a LumaPlate-96 (Packard) and the amount of ³⁵S on the plate was measured using a TopCount NXT instrument (Packard). The amount of fibronectin-based scaffold protein bound to the target was estimated as a percent of radioactivity eluted from Protein A magnetic beads compare to radioactivity in the reaction mixture. Nonspecific binding of fibronectin-based scaffold proteins to the beads was determined by measuring binding in the absence of KDR-Fc and represented less than 1-2% of the input. Specific binding was obtained through subtraction of nonspecific binding from total binding. Data was analyzed using the GraphPad Prizm software (GraphPad Software, Inc, San Diego, Calif.), fitted using a one site, non-linear binding equation.
# T1 sequence (P35968 20-764 limits assumed, change not shown, form in doubt): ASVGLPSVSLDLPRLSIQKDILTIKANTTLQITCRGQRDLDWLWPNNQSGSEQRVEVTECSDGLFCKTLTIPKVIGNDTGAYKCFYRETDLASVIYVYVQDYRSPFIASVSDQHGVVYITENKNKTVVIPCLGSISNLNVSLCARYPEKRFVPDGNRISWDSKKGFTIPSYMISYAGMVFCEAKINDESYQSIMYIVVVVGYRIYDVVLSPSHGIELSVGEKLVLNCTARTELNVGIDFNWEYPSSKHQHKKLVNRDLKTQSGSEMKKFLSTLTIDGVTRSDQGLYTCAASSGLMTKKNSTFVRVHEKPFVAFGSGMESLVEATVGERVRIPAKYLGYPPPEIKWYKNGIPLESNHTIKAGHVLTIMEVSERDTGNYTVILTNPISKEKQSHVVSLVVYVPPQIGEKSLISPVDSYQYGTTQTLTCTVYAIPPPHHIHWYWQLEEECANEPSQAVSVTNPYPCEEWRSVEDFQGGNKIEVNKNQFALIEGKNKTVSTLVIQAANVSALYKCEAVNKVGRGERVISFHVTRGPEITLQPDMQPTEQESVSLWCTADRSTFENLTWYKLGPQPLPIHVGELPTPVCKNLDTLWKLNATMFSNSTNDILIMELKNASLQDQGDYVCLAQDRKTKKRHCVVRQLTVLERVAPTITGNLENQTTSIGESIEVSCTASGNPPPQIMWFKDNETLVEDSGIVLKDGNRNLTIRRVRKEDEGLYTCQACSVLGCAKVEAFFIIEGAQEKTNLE
row,"Binding to 1 nM KDR, % [%]",Binder
1,29,B1
2,27,B2
3,32,B3
4,42,B4
5,41,B5
6,29,B6
7,21,B7
8,14,B8
9,37,B9
10,33,B10
11,39,B11
12,19,B12
13,27,B13
14,16,B14
15,15,B15
16,30,B16
17,31,B17
18,36,B18
19,37,B19
20,23,B20
21,17,B21
22,15,B22
23,31,B23
24,19,B24
25,28,B25
26,20,B26
27,19,B27

row,"Binding to 1 nM KDR, % [%]",Binder
1,24,B28
2,16,B29
3,26,B30
4,17,B31
5,25,B32
6,42,B33
7,44,B34
8,20,B35
9,16,B36
10,17,B37
11,18,B38
12,38,B39
13,30,B40
14,29,B41
15,27,B42
16,24,B43
17,14,B44
18,32,B45
19,18,B46
20,15,B47
21,23,B48
22,19,B49
23,19,B50
24,14,B51
25,22,B52
26,14,B53
27,21,B54
